Assay [1] has as its target T1, β-catenin (UniProt P35222 134-665, limits assumed, biotinylated in the SPR and plate assays).
T1 sequence (looked up): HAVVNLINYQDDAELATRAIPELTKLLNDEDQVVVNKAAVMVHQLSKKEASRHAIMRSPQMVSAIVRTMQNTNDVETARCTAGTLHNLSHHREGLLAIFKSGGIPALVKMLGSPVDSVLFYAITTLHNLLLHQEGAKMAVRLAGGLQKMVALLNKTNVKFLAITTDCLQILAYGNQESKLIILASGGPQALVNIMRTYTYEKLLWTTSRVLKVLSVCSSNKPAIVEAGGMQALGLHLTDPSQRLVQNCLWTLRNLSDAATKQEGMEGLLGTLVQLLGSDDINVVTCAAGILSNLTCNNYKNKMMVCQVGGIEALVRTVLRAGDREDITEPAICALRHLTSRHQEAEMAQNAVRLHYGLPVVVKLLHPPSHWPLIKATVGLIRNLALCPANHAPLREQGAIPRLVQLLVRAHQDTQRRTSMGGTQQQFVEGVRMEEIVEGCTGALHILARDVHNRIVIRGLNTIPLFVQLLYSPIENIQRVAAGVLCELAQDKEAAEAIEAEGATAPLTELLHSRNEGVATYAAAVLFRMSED
The assay can be described thus: cell-based or functional assay.

The target of assay [2] is T1, β-catenin. The assay is described as follows: competitive FP. A digest of the protocol:
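Competitive fluorescence polarization with inhibitor peptide serially diluted from 10 nM to 30 uM; polarization read at 470 nm excitation, 520 nm emission. Experiments performed three times.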

By Kd is commonly meant a measure of binding affinity in units of concentration.

Where “and” joins values, the source holds several entries; their conditions need not be identical. Equal entries are not always repeated. Bridges are numbered along the chain shown (N, C = ends). Where no end group is shown, it is not given here. [ ]: non-standard residue; d: D form. NMeW = CN[C@@H](Cc1c[nH]c2ccccc12)C(=O)O; αMeV = CC(C)[C@](C)(N)C(=O)O; αMeS = C[C@](N)(CO)C(=O)O; NMeA = CN[C@@H](C)C(=O)O

B1: SEQ ID NO: 442 (peptide)
peptide: WXQKILDEHGQRVWG
HELM: PEPTIDE1{[ac].W.[O=C([C@@H]1CCCCN1[*:1])[*:2]].Q.K.I.L.D.E.H.[O=C([C@@H](N[*:1])C1CCCCC1)[*:2]].Q.R.V.W.G.[am]}$PEPTIDE1,PEPTIDE1,5:R3-9:R3$$$V2.0
SMILES: CC[C@H](C)[C@@H]1NC(=O)[C@@H](NC(=O)[C@H](CCC(N)=O)NC(=O)[C@@H]2CCCCN2C(=O)[C@H](Cc2c[nH]c3ccccc23)NC(C)=O)CCCCNC(=O)CC[C@@H](C(=O)N[C@@H](Cc2c[nH]cn2)C(=O)N[C@H](C(=O)N[C@@H](CCC(N)=O)C(=O)N[C@@H](CCCNC(=N)N)C(=O)N[C@H](C(=O)N[C@@H](Cc2c[nH]c3ccccc23)C(=O)NCC(N)=O)C(C)C)C2CCCCC2)NC(=O)[C@H](CC(=O)O)NC(=O)[C@H](CC(C)C)NC1=O
In the case of B1, the “Wnt Reporter EC50” value with β-catenin [1] was ≤ 7.5 µM. Also, in the assay with β-catenin [2], the Kd was ≤ 0.4 µM.

B2: SEQ ID NO: 443 (peptide)
peptide: WXQKILDEHGQRVWG
HELM: PEPTIDE1{[ac].W.[Aib].Q.K.I.L.D.E.H.[O=C([C@@H](N[*:1])C1CCCCC1)[*:2]].Q.R.V.W.G.[am]}$PEPTIDE1,PEPTIDE1,5:R3-9:R3$$$V2.0
SMILES: CC[C@H](C)[C@@H]1NC(=O)[C@@H](NC(=O)[C@H](CCC(N)=O)NC(=O)C(C)(C)NC(=O)[C@H](Cc2c[nH]c3ccccc23)NC(C)=O)CCCCNC(=O)CC[C@@H](C(=O)N[C@@H](Cc2c[nH]cn2)C(=O)N[C@H](C(=O)N[C@@H](CCC(N)=O)C(=O)N[C@@H](CCCNC(=N)N)C(=O)N[C@H](C(=O)N[C@@H](Cc2c[nH]c3ccccc23)C(=O)NCC(N)=O)C(C)C)C2CCCCC2)NC(=O)[C@H](CC(=O)O)NC(=O)[C@H](CC(C)C)NC1=O
B2: in the assay with β-catenin [1], the “Wnt Reporter EC50” value is > 7.5 µM and ≤ 15 µM. Besides, in the assay with β-catenin [2], the Kd is ≤ 0.4 µM.

B3: SEQ ID NO: 438 (peptide)
peptide: W[NMeA]QSILDEHVQKVWG-NH2
modifications: lactam 8-12; not fully specified (N-terminus); printed as H17C8C(O)NH-W-NmeA-QSILDE*HVQK*VWG-NH2
Consider B3, for which the “Wnt Reporter EC50” value in the assay with β-catenin [1] was ≤ 7.5 µM. In addition, in the assay with β-catenin [2], the Kd was ≤ 0.4 µM.

B4: SEQ ID NO: 439 (peptide)
peptide: W[NMeA]QSILDEHVQKVWG-NH2
modifications: lactam 8-12; not fully specified (N-terminus); printed as H23C11C(O)NH-W-NmeA-QSILDE*HVQK*VWG-NH2
Turning to B4, in the assay with β-catenin [1], the “Wnt Reporter EC50” value is > 7.5 µM and ≤ 15 µM. Also, in the assay with β-catenin [2], the Kd is ≤ 0.4 µM.

B5: SEQ ID NO: 472 (peptide)
peptide: WPQSILDEHGQKVWG
modifications: not fully specified; Ac-NH-WPQSILDE*H-Chg-QK*VWG-NH2
B5: the “Wnt Reporter EC50” value in the assay with β-catenin [1] was > 7.5 µM and ≤ 15 µM. For the same molecule, in the assay with β-catenin [2], the equilibrium dissociation constant (Kd) was ≤ 0.4 µM.

B6: SEQ ID NO: 473 (peptide)
peptide: WPQSILDEHGQKVWG
modifications: not fully specified; Lauroyl-NH-WPQSILDE*H-Chg-QK*VWG-NH2
With B6, the “Wnt Reporter EC50” value in the assay with β-catenin [1] was ≤ 7.5 µM. Besides, in the assay with β-catenin [2], the Kd was ≤ 0.4 µM.

B7: SEQ ID NO: 441 (peptide)
peptide: WAQKILDEHGQRVWG
HELM: PEPTIDE1{[ac].W.A.Q.K.I.L.D.E.H.[O=C([C@@H](N[*:1])C1CCCCC1)[*:2]].Q.R.V.W.G.[am]}$PEPTIDE1,PEPTIDE1,5:R3-9:R3$$$V2.0
SMILES: CC[C@H](C)[C@@H]1NC(=O)[C@@H](NC(=O)[C@H](CCC(N)=O)NC(=O)[C@H](C)NC(=O)[C@H](Cc2c[nH]c3ccccc23)NC(C)=O)CCCCNC(=O)CC[C@@H](C(=O)N[C@@H](Cc2c[nH]cn2)C(=O)N[C@H](C(=O)N[C@@H](CCC(N)=O)C(=O)N[C@@H](CCCNC(=N)N)C(=O)N[C@H](C(=O)N[C@@H](Cc2c[nH]c3ccccc23)C(=O)NCC(N)=O)C(C)C)C2CCCCC2)NC(=O)[C@H](CC(=O)O)NC(=O)[C@H](CC(C)C)NC1=O
For B7, in the assay with β-catenin [1], the “Wnt Reporter EC50” value was > 30 µM. Besides, the Kd with β-catenin [2] is ≤ 0.4 µM.

B8: SEQ ID NO: 445 (peptide)
peptide: AQKILDEHGQRVW
HELM: PEPTIDE1{[ac].[meA].Q.K.I.L.D.E.H.[O=C([C@@H](N[*:1])C1CCCCC1)[*:2]].Q.R.V.W.[am]}$PEPTIDE1,PEPTIDE1,4:R3-8:R3$$$V2.0
SMILES: CC[C@H](C)[C@@H]1NC(=O)[C@@H](NC(=O)[C@H](CCC(N)=O)NC(=O)[C@H](C)N(C)C(C)=O)CCCCNC(=O)CC[C@@H](C(=O)N[C@@H](Cc2c[nH]cn2)C(=O)N[C@H](C(=O)N[C@@H](CCC(N)=O)C(=O)N[C@@H](CCCNC(=N)N)C(=O)N[C@H](C(=O)N[C@@H](Cc2c[nH]c3ccccc23)C(N)=O)C(C)C)C2CCCCC2)NC(=O)[C@H](CC(=O)O)NC(=O)[C@H](CC(C)C)NC1=O
Turning to B8, the “Wnt Reporter EC50” value in the assay with β-catenin [1] was > 22.5 µM and ≤ 30 µM. Further, in the assay with β-catenin [2], the equilibrium dissociation constant (Kd) was ≤ 0.4 µM.

B9: SEQ ID NO: 448 (peptide)
peptide: AQKILDEHGQRVWR
HELM: PEPTIDE1{[ac].[meA].Q.K.I.L.D.E.H.[O=C([C@@H](N[*:1])C1CCCCC1)[*:2]].Q.R.V.W.R.[am]}$PEPTIDE1,PEPTIDE1,4:R3-8:R3$$$V2.0
SMILES: CC[C@H](C)[C@@H]1NC(=O)[C@@H](NC(=O)[C@H](CCC(N)=O)NC(=O)[C@H](C)N(C)C(C)=O)CCCCNC(=O)CC[C@@H](C(=O)N[C@@H](Cc2c[nH]cn2)C(=O)N[C@H](C(=O)N[C@@H](CCC(N)=O)C(=O)N[C@@H](CCCNC(=N)N)C(=O)N[C@H](C(=O)N[C@@H](Cc2c[nH]c3ccccc23)C(=O)N[C@@H](CCCNC(=N)N)C(N)=O)C(C)C)C2CCCCC2)NC(=O)[C@H](CC(=O)O)NC(=O)[C@H](CC(C)C)NC1=O
Take B9: in the assay with β-catenin [1], the “Wnt Reporter EC50” value is > 30 µM. The Kd in the assay with β-catenin [2] is ≤ 0.4 µM.

B10: SEQ ID NO: 428 (peptide)
peptide: RWPQKILDEHVRRVWR
HELM: PEPTIDE1{[ac].R.W.P.Q.K.I.L.D.E.H.V.R.R.V.W.R.[am]}$PEPTIDE1,PEPTIDE1,6:R3-10:R3$$$V2.0
SMILES: CC[C@H](C)[C@@H]1NC(=O)[C@@H](NC(=O)[C@H](CCC(N)=O)NC(=O)[C@@H]2CCCN2C(=O)[C@H](Cc2c[nH]c3ccccc23)NC(=O)[C@H](CCCNC(=N)N)NC(C)=O)CCCCNC(=O)CC[C@@H](C(=O)N[C@@H](Cc2c[nH]cn2)C(=O)N[C@H](C(=O)N[C@@H](CCCNC(=N)N)C(=O)N[C@@H](CCCNC(=N)N)C(=O)N[C@H](C(=O)N[C@@H](Cc2c[nH]c3ccccc23)C(=O)N[C@@H](CCCNC(=N)N)C(N)=O)C(C)C)C(C)C)NC(=O)[C@H](CC(=O)O)NC(=O)[C@H](CC(C)C)NC1=O
For the molecule B10, the “Wnt Reporter EC50” value in the assay with β-catenin [1] was > 30 µM. Besides, in the assay with β-catenin [2], the Kd was ≤ 0.4 µM.

B11: SEQ ID NO: 66 (peptide)
peptide: H-MSRMWYLISFWG-OH
On to B11, for which the “Wnt Reporter EC50” value with β-catenin [1] was > 7.5 µM and ≤ 15 µM. Besides, the Kd in the assay with β-catenin [2] was > 10 µM and ≤ 30 µM.

B12: SEQ ID NO: 69 (peptide)
peptide: H-MSRMWFLISFRG-OH
For B12, in the assay with β-catenin [1], the “Wnt Reporter EC50” value was > 30 µM. In addition, the Kd in the assay with β-catenin [2] was ≤ 0.4 µM.

B13: SEQ ID NO: 39 (peptide)
peptide: H-W[NMeW]ESILDEH[αMeV]QRVWG-NH2
As for B13, in the assay with β-catenin [1], the “Wnt Reporter EC50” value is > 30 µM. Also, in the assay with β-catenin [2], the Kd was ≤ 0.4 µM.

B14: SEQ ID NO: 444 (peptide)
peptide: EDPQKILDEHLQRVLK
modifications: not fully specified; H23C11C(O)NH-EDPQK*ILDE*HLQRVLK-NH2
Consider B14, for which the “Wnt Reporter EC50” value in the assay with β-catenin [1] is > 30 µM. Besides, the Kd in the assay with β-catenin [2] is ≤ 0.4 µM.

B15: SEQ ID NO: 40 (peptide)
peptide: H-W[NMeW]E[αMeS]ILDEHVQRVWG-NH2
For the molecule B15, the “Wnt Reporter EC50” value with β-catenin [1] was > 30 µM. Moreover, the Kd with β-catenin [2] was ≤ 0.4 µM.

B16: SEQ ID NO: 447 (peptide)
peptide: WAQKILDEHGQRVW
HELM: PEPTIDE1{[CCCCCCCCCCCC(=O)[*:2]].W.[meA].Q.K.I.L.D.E.H.[O=C([C@@H](N[*:1])C1CCCCC1)[*:2]].Q.R.V.W.[am]}$PEPTIDE1,PEPTIDE1,5:R3-9:R3$$$V2.0
SMILES: CCCCCCCCCCCC(=O)N[C@@H](Cc1c[nH]c2ccccc12)C(=O)N(C)[C@@H](C)C(=O)N[C@@H](CCC(N)=O)C(=O)N[C@H]1CCCCNC(=O)CC[C@@H](C(=O)N[C@@H](Cc2c[nH]cn2)C(=O)N[C@H](C(=O)N[C@@H](CCC(N)=O)C(=O)N[C@@H](CCCNC(=N)N)C(=O)N[C@H](C(=O)N[C@@H](Cc2c[nH]c3ccccc23)C(N)=O)C(C)C)C2CCCCC2)NC(=O)[C@H](CC(=O)O)NC(=O)[C@H](CC(C)C)NC(=O)[C@H]([C@@H](C)CC)NC1=O
Turning to B16, the “Wnt Reporter EC50” value with β-catenin [1] was ≤ 7.5 µM. The Kd with β-catenin [2] was ≤ 0.4 µM.

B17: SEQ ID NO: 440 (peptide)
peptide: QKILDEHGQRVWG
HELM: PEPTIDE1{[ac].Q.K.I.L.D.E.H.[O=C([C@@H](N[*:1])C1CCCCC1)[*:2]].Q.R.V.W.G.[am]}$PEPTIDE1,PEPTIDE1,3:R3-7:R3$$$V2.0
SMILES: CC[C@H](C)[C@@H]1NC(=O)[C@@H](NC(=O)[C@H](CCC(N)=O)NC(C)=O)CCCCNC(=O)CC[C@@H](C(=O)N[C@@H](Cc2c[nH]cn2)C(=O)N[C@H](C(=O)N[C@@H](CCC(N)=O)C(=O)N[C@@H](CCCNC(=N)N)C(=O)N[C@H](C(=O)N[C@@H](Cc2c[nH]c3ccccc23)C(=O)NCC(N)=O)C(C)C)C2CCCCC2)NC(=O)[C@H](CC(=O)O)NC(=O)[C@H](CC(C)C)NC1=O
Turning to B17, in the assay with β-catenin [1], the “Wnt Reporter EC50” value was > 22.5 µM and ≤ 30 µM. Also, the dissociation constant (Kd) in the assay with β-catenin [2] was ≤ 0.4 µM.

The record behind these values is patent publication US20260098059A1 (ENDOMET BIOSCIENCES, published 2026).
